Changes are numbered by the printed parent chain. Names and notes keep the numbering of the source. Like-named read-outs stand apart in the source and are kept apart here.

Test [1] has as its target T1, ubiquitin (UniProt P0CG48 1-76). The experiment in a line: NMR titration.
The target of test [2] is T1, ubiquitin. Description: NMR HSQC peak broadening and PRE.
The target in test [3] is T1, ubiquitin. Description: NMR HSQC peak broadening and PRE. This is another data set of the same source.

B1: HD-PTP V domain (residues 361-711), wild type (domain or fragment)
chain: VPMAAHEASSLYSEEKAKLLREMMAKIEDKNEVLDQFMDSMQLDPETVDNLDAYSHIPPQLMEKCAALSVRPDTVRNLVQSMQVLSGVFTDVEASLKDIRDLLEEDELLEQKFQEAVGQAGAISITSKAELAEVRREWAKYMEVHEKASFTNSELHRAMNLHVGNLRLLSGPLDQVRAALPTPALSPEDKAVLQNLKRILAKVQEMRDQRVSLEQQLRELIQKDDITASLVTTDHSEMKKLFEEQLKKYDQLKVYLEQNLAAQDRVLCALTEANVQYAAVRRVLSDLDQKWNSTLQTLVASYEAYEDLMKKSQEGRDFYADLESKVAALLERTQSTCQAREAARQQLLDRE
B1 gave a dissociation constant Kd in test [1] of roughly 31 µM.

B2: HD-PTP V domain lacking cysteine residues (C425A, C628A, C697A) (domain or fragment)
chain: B1 chain with C65A, C268A, C337A
B2: the binding result in test [2] is recorded as “binds”.

B3: HD-PTP V domain Site2∆ (E388A, D389A), single spin label at residue 400 (S400) (domain or fragment)
chain: B1 chain with E28A, D29A, S40C, C65A, C268A, C337A
modifications: MTSL spin label on cysteine 400
As to B3, the binding result in test [3] was “binds”.

B4: HD-PTP V domain Site2∆ (E388A, D389A), single spin label at residue 368 (domain or fragment)
chain: B1 chain with A8C, E28A, D29A, C65A, C268A, C337A
modifications: MTSL spin label on cysteine 368
In the case of B4, in test [3], the binding result was “binds”.

B5: HD-PTP V domain, no-Cys, single cysteine at 368 (A368C), MTSL-labelled (domain or fragment)
chain: B1 chain with A8C, C65A, C268A, C337A
modifications: MTSL spin label on cysteine 368
For B5, in test [2], the binding result is “binds”.

B6: HD-PTP V domain, no-Cys, S400C, MTSL-labelled (domain or fragment)
chain: B1 chain with S40C, C65A, C268A, C337A
modifications: MTSL spin label on cysteine 400
On to B6, for which the binding result in test [2] was “binds”.

B7: HD-PTP V domain Site1∆ (L371A, E374A, E375A) (domain or fragment)
chain: B1 chain with L11A, E14A, E15A
The molecule B7 had a dissociation constant (Kd) in test [1] of 900 µM.

The term Kd denotes the equilibrium constant for the complex coming apart.
